From the Human Domainome abundance scans (Beltran et al. 2025)
± gives the uncertainty stated by the source.

Test: abundance fitness (aPCA) (normalised: wild type 0, dead -1); higher = more abundant; growth selection in yeast, the domain comes from the species named
Conditions: Homo sapiens
For “E3 ubiquitin-protein ligase NEDD4-like E232I, Q96PU5”, the abundance fitness was -0.5 ± 0.31.
For “E3 ubiquitin-protein ligase NEDD4-like E232K, Q96PU5”, the abundance fitness was -1.37 ± 0.43.
Substance “E3 ubiquitin-protein ligase NEDD4-like E232L, Q96PU5” has an abundance fitness of -0.158 ± 0.19.
Substance “E3 ubiquitin-protein ligase NEDD4-like E232M, Q96PU5” has an abundance fitness of -0.402 ± 0.12.
With “E3 ubiquitin-protein ligase NEDD4-like E232N, Q96PU5” the abundance fitness was 0.022 ± 0.072.
Work on “E3 ubiquitin-protein ligase NEDD4-like E232P, Q96PU5” yielded an abundance fitness of 0.216 ± 0.17.
Work on “E3 ubiquitin-protein ligase NEDD4-like E232R, Q96PU5” yielded an abundance fitness of -0.999 ± 0.24.
“E3 ubiquitin-protein ligase NEDD4-like E232V, Q96PU5” showed an abundance fitness of -0.901 ± 0.18.
With “E3 ubiquitin-protein ligase NEDD4-like E232W, Q96PU5” the abundance fitness was -0.98 ± 0.33.
In the case of “E3 ubiquitin-protein ligase NEDD4-like E232Y, Q96PU5”, the abundance fitness is reported as -0.413 ± 0.27.
With “E3 ubiquitin-protein ligase NEDD4-like G198A, Q96PU5” the abundance fitness was -0.032 ± 0.069.
Substance “E3 ubiquitin-protein ligase NEDD4-like G198C, Q96PU5” has an abundance fitness of -0.171 ± 0.092.
In the case of “E3 ubiquitin-protein ligase NEDD4-like G198E, Q96PU5”, the abundance fitness is reported as -0.691 ± 0.092.
“E3 ubiquitin-protein ligase NEDD4-like G198F, Q96PU5” showed an abundance fitness of -0.15 ± 0.086.
“E3 ubiquitin-protein ligase NEDD4-like G198H, Q96PU5” gave an abundance fitness of -0.197 ± 0.11.
Substance “E3 ubiquitin-protein ligase NEDD4-like G198I, Q96PU5” has an abundance fitness of -0.765 ± 0.15.
Substance “E3 ubiquitin-protein ligase NEDD4-like G198K, Q96PU5” has an abundance fitness of -0.103 ± 0.087.
For “E3 ubiquitin-protein ligase NEDD4-like G198L, Q96PU5”, the abundance fitness was -0.209 ± 0.054.
For “E3 ubiquitin-protein ligase NEDD4-like G198M, Q96PU5”, the abundance fitness was -0.058 ± 0.092.
In the case of “E3 ubiquitin-protein ligase NEDD4-like G198N, Q96PU5”, the abundance fitness is reported as -0.095 ± 0.11.
With “E3 ubiquitin-protein ligase NEDD4-like G198P, Q96PU5” the abundance fitness was -0.077 ± 0.074.
Work on “E3 ubiquitin-protein ligase NEDD4-like G198Q, Q96PU5” yielded an abundance fitness of -0.075 ± 0.06.
“E3 ubiquitin-protein ligase NEDD4-like G198R, Q96PU5” gave an abundance fitness of -0.238 ± 0.06.
Work on “E3 ubiquitin-protein ligase NEDD4-like G198S, Q96PU5” yielded an abundance fitness of -0.139 ± 0.057.
“E3 ubiquitin-protein ligase NEDD4-like G198T, Q96PU5” gave an abundance fitness of -0.239 ± 0.075.
For “E3 ubiquitin-protein ligase NEDD4-like G198V, Q96PU5”, the abundance fitness was -0.291 ± 0.062.
In the case of “E3 ubiquitin-protein ligase NEDD4-like G198W, Q96PU5”, the abundance fitness is reported as -0.324 ± 0.095.
Substance “E3 ubiquitin-protein ligase NEDD4-like G198Y, Q96PU5” has an abundance fitness of -0.049 ± 0.069.
Substance “E3 ubiquitin-protein ligase NEDD4-like G207A, Q96PU5” has an abundance fitness of -0.252 ± 0.052.
Substance “E3 ubiquitin-protein ligase NEDD4-like G207D, Q96PU5” has an abundance fitness of -0.162 ± 0.056.
For “E3 ubiquitin-protein ligase NEDD4-like G207E, Q96PU5”, the abundance fitness was -0.312 ± 0.066.
With “E3 ubiquitin-protein ligase NEDD4-like G207F, Q96PU5” the abundance fitness was -0.423 ± 0.056.
“E3 ubiquitin-protein ligase NEDD4-like G207H, Q96PU5” gave an abundance fitness of -0.171 ± 0.066.
In the case of “E3 ubiquitin-protein ligase NEDD4-like G207I, Q96PU5”, the abundance fitness is reported as -0.96 ± 0.061.
In the case of “E3 ubiquitin-protein ligase NEDD4-like G207K, Q96PU5”, the abundance fitness is reported as -0.128 ± 0.063.
In the case of “E3 ubiquitin-protein ligase NEDD4-like G207L, Q96PU5”, the abundance fitness is reported as -0.432 ± 0.052.
For “E3 ubiquitin-protein ligase NEDD4-like G207M, Q96PU5”, the abundance fitness was -0.27 ± 0.067.
In the case of “E3 ubiquitin-protein ligase NEDD4-like G207N, Q96PU5”, the abundance fitness is reported as 0.042 ± 0.067.
“E3 ubiquitin-protein ligase NEDD4-like G207P, Q96PU5” gave an abundance fitness of -0.756 ± 0.053.
Work on “E3 ubiquitin-protein ligase NEDD4-like G207Q, Q96PU5” yielded an abundance fitness of -0.192 ± 0.069.
“E3 ubiquitin-protein ligase NEDD4-like G207R, Q96PU5” gave an abundance fitness of -0.252 ± 0.051.
Substance “E3 ubiquitin-protein ligase NEDD4-like G207S, Q96PU5” has an abundance fitness of -0.182 ± 0.048.
For “E3 ubiquitin-protein ligase NEDD4-like G207T, Q96PU5”, the abundance fitness was -0.419 ± 0.055.
Work on “E3 ubiquitin-protein ligase NEDD4-like G207V, Q96PU5” yielded an abundance fitness of -0.803 ± 0.056.
Substance “E3 ubiquitin-protein ligase NEDD4-like G207W, Q96PU5” has an abundance fitness of -0.738 ± 0.077.
In the case of “E3 ubiquitin-protein ligase NEDD4-like G207Y, Q96PU5”, the abundance fitness is reported as -0.397 ± 0.06.
In the case of “E3 ubiquitin-protein ligase NEDD4-like H186A, Q96PU5”, the abundance fitness is reported as -0.362 ± 0.069.
With “E3 ubiquitin-protein ligase NEDD4-like H186C, Q96PU5” the abundance fitness was -0.282 ± 0.093.
“E3 ubiquitin-protein ligase NEDD4-like H186D, Q96PU5” showed an abundance fitness of 0.168 ± 0.082.
“E3 ubiquitin-protein ligase NEDD4-like H186E, Q96PU5” showed an abundance fitness of -1.69 ± 0.14.
“E3 ubiquitin-protein ligase NEDD4-like H186F, Q96PU5” showed an abundance fitness of -0.111 ± 0.12.
“E3 ubiquitin-protein ligase NEDD4-like H186G, Q96PU5” showed an abundance fitness of -0.461 ± 0.067.
Work on “E3 ubiquitin-protein ligase NEDD4-like H186I, Q96PU5” yielded an abundance fitness of 0.086 ± 0.12.
“E3 ubiquitin-protein ligase NEDD4-like H186K, Q96PU5” gave an abundance fitness of -0.222 ± 0.079.
Work on “E3 ubiquitin-protein ligase NEDD4-like H186L, Q96PU5” yielded an abundance fitness of -0.185 ± 0.074.
“E3 ubiquitin-protein ligase NEDD4-like H186M, Q96PU5” gave an abundance fitness of -0.349 ± 0.1.
“E3 ubiquitin-protein ligase NEDD4-like H186N, Q96PU5” showed an abundance fitness of -0.123 ± 0.13.
With “E3 ubiquitin-protein ligase NEDD4-like H186P, Q96PU5” the abundance fitness was -0.292 ± 0.081.
With “E3 ubiquitin-protein ligase NEDD4-like H186Q, Q96PU5” the abundance fitness was -0.511 ± 0.1.
Substance “E3 ubiquitin-protein ligase NEDD4-like H186R, Q96PU5” has an abundance fitness of -0.59 ± 0.061.
Work on “E3 ubiquitin-protein ligase NEDD4-like H186S, Q96PU5” yielded an abundance fitness of -0.185 ± 0.076.
In the case of “E3 ubiquitin-protein ligase NEDD4-like H186T, Q96PU5”, the abundance fitness is reported as -0.288 ± 0.11.
In the case of “E3 ubiquitin-protein ligase NEDD4-like H186V, Q96PU5”, the abundance fitness is reported as -0.045 ± 0.058.
With “E3 ubiquitin-protein ligase NEDD4-like H186W, Q96PU5” the abundance fitness was -1.24 ± 0.064.
“E3 ubiquitin-protein ligase NEDD4-like H186Y, Q96PU5” gave an abundance fitness of -0.095 ± 0.12.
Substance “E3 ubiquitin-protein ligase NEDD4-like H214F, Q96PU5” has an abundance fitness of -0.07 ± 0.1.
For “E3 ubiquitin-protein ligase NEDD4-like H214I, Q96PU5”, the abundance fitness was -0.005 ± 0.078.
Work on “E3 ubiquitin-protein ligase NEDD4-like H214K, Q96PU5” yielded an abundance fitness of 0.032 ± 0.081.
